According to US20180326084A1 (Genmab, published 2018):
Blank lines part the entries; values can stand above or below the binder they belong to.

Key:
[1] = molecular target: T1, human AXL (full length) (human, UniProt P30530 26-894); assay: flow cytometry, Gas6 titrated on A431 cells pre-incubated with 10 µg/mL control antibody b12
T1 construct: also called TH1021-AXL; TH1021-hAXL

[2] = molecular target: T1, human AXL (full length); assay: as above; remark: listed apart in the source
[3] = molecular target: T1, human AXL (full length); assay: flow cytometry, Gas6 titrated on A431 cells pre-incubated with 10 µg/mL IgG1-AXL-148 (competitor)
[4] = molecular target: T1, human AXL (full length); assay: flow cytometry, Gas6 titrated on A431 cells pre-incubated with 10 µg/mL IgG1-AXL-183 (competitor)
[5] = molecular target: T1, human AXL (full length); assay: flow cytometry, A431 cells pre-incubated with medium only; Gas6 detected with mouse anti-Gas6 and FITC anti-mouse IgG
[6] = molecular target: T1, human AXL (full length); assay: flow cytometry, Gas6 titrated on A431 cells pre-incubated with 10 µg/mL YW327.6S2 (competitor); value less accurate due to low binding
[7] = molecular target: T1, human AXL (full length); assay: as above; remark: listed apart in the source
[8] = molecular target: T1, human AXL (full length); assay: flow cytometry, Gas6 titrated on A431 cells pre-incubated with 10 µg/mL IgG1-AXL-613 (competitor)
[9] = molecular target: T1, human AXL (full length); assay: flow cytometry, Gas6 titrated on A431 cells pre-incubated with 10 µg/mL IgG1-AXL-726 (competitor)
[10] = molecular target: T1, human AXL (full length); assay: flow cytometry, Gas6 titrated on A431 cells pre-incubated with 10 µg/mL IgG1-AXL-613 (competitor); remark: listed apart in the source
[11] = molecular target: T1, human AXL (full length); assay: flow cytometry, Gas6 titrated on A431 cells pre-incubated with 10 µg/mL IgG1-AXL-107 (competitor)
[12] = molecular target: T1, human AXL (full length); assay: flow cytometry, Gas6 titrated on A431 cells pre-incubated with 10 µg/mL IgG1-AXL-511 (competitor)
[13] = molecular target: T1, human AXL (full length); assay: flow cytometry, Gas6 titrated on A431 cells pre-incubated with 10 µg/mL IgG1-AXL-171 (competitor)
[14] = molecular target: T1, human AXL (full length); assay: flow cytometry, Gas6 titrated on A431 cells pre-incubated with 10 µg/mL IgG1-AXL-733 (competitor)
[15] = molecular target: T1, human AXL (full length); assay: flow cytometry, Gas6 titrated on A431 cells pre-incubated with 10 µg/mL IgG1-AXL-154 (competitor)
[16] = molecular target: T1, human AXL (full length); assay: flow cytometry, Gas6 titrated on A431 cells pre-incubated with 10 µg/mL IgG1-AXL-107 (competitor); remark: listed apart in the source
[17] = molecular target: T2, Homo sapiens AXL-Mus musculus FN2 domain (p33-AXL-mFN2) (human-mouse chimera, UniProt P30530 26-894); assay: flow cytometry, 1 µg/mL antibody, transfected HEK293F cells
T2 construct: Expressed in HEK293F cells; also called hsAXL-mmFN2; TH1021-mFN2
T2 chain: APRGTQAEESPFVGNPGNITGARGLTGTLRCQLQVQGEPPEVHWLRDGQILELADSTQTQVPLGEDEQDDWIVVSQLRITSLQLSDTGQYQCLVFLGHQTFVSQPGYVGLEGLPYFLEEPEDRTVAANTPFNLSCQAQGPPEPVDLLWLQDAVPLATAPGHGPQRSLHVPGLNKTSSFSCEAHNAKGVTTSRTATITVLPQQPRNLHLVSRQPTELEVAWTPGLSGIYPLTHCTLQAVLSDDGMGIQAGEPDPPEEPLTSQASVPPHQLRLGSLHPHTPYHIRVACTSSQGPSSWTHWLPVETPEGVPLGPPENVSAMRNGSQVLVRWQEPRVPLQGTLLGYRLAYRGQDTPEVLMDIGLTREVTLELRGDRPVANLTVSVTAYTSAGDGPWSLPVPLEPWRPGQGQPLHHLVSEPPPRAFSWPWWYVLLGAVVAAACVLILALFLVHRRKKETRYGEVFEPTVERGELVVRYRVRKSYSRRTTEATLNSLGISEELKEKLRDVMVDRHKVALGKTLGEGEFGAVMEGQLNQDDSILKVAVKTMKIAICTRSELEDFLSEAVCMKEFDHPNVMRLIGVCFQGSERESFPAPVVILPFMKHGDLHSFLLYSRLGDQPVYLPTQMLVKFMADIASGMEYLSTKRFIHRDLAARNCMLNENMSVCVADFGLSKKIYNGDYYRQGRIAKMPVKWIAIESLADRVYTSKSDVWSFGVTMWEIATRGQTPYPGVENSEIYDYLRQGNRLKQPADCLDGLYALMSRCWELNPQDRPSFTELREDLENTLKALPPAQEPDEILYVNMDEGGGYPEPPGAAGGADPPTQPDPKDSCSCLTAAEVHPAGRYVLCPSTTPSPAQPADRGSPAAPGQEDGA

[18] = molecular target: T3, Homo sapiens AXL-Mus musculus Ig2 domain (p33-AXL-mIg2) (human-mouse chimera, UniProt P30530 26-894); assay: as above
T3 construct: Expressed in HEK293F cells; also called hsAXL-mmIg2; TH1021-mIg2
T3 chain: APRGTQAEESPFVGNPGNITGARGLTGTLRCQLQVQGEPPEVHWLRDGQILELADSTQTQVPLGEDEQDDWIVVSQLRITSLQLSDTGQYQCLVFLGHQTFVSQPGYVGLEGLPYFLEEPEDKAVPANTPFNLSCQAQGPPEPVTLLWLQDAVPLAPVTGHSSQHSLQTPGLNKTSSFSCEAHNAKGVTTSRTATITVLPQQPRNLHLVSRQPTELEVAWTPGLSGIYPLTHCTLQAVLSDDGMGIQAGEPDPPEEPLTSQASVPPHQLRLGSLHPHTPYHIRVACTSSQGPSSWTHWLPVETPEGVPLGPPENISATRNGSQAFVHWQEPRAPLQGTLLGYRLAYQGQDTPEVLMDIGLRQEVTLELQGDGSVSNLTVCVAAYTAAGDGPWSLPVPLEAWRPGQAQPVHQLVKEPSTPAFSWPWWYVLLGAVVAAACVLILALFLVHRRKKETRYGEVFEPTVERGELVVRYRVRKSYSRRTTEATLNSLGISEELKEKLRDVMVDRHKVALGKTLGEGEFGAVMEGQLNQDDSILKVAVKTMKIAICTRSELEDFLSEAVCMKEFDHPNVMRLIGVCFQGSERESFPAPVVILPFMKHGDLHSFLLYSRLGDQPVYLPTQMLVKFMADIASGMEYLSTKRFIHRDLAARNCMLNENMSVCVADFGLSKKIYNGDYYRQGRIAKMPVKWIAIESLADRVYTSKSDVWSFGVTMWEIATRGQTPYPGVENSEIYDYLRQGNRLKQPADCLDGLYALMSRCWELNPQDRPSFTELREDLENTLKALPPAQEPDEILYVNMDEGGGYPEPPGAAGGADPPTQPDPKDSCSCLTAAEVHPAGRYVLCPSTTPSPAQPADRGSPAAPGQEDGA

[19] = molecular target: T4, Homo sapiens AXL-Mus musculus FN1 domain (p33-AXL-mFN1) (human-mouse chimera, UniProt P30530 26-894); assay: as above
T4 construct: Expressed in HEK293F cells; also called hsAXL-mmFN1; TH1021-mFN1
T4 chain: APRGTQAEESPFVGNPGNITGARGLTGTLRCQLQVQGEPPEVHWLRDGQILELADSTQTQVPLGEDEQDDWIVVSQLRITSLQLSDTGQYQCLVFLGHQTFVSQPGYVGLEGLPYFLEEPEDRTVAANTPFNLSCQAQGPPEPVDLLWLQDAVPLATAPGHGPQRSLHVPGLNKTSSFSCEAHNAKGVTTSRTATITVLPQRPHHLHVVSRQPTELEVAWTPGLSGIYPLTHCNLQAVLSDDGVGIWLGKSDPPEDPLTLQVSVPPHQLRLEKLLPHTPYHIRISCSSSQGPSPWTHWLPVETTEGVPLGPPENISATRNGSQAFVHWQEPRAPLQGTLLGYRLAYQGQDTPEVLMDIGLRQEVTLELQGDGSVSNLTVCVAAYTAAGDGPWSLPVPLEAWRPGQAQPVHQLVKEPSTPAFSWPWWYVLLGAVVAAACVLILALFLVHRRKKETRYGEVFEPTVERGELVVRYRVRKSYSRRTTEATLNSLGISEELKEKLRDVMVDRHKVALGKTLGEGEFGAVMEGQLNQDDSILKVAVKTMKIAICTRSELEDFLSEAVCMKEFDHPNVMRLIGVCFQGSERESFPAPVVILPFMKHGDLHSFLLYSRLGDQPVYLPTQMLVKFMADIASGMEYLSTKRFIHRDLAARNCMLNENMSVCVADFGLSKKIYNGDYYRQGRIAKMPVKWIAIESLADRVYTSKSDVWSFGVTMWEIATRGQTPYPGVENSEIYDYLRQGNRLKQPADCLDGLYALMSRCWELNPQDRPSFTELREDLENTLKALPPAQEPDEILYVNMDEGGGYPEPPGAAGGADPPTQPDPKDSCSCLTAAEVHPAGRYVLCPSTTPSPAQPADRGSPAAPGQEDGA

[20] = molecular target: T1, human AXL (full length); assay: flow cytometry, A431 cells pre-incubated with 10 µg/mL Gas6 (competitor)
[21] = molecular target: T1, human AXL (full length); assay: flow cytometry, A431 cells, no Gas6

EC50 [1]: 0.4 µg/mL
EC50 [2]: 0.4 µg/mL
EC50 [3]: 0.73 µg/mL
EC50 [4]: 0.34 µg/mL
EC50 (read off the curve) [5]: ~0.1 µg/mL
EC50 [6]: 5.53 µg/mL
EC50 [7]: 5.53 µg/mL
EC50 [8]: 0.57 µg/mL
EC50 [9]: 0.77 µg/mL
EC50 [10]: 0.57 µg/mL
EC50 [11]: 0.78 µg/mL
EC50 [12]: 0.74 µg/mL
EC50 [13]: 0.69 µg/mL
EC50 [14]: 0.83 µg/mL
EC50 [15]: 0.44 µg/mL
EC50 [16]: 0.78 µg/mL
B1: recombinant human Gas6 (ligand, UniProt Q14393 49-678, looked up)
chain: AFQVFEEAKQGHLERECVEELCSREEAREVFENDPETDYFYPRYLDCINKYGSPYTKNSGFATCVQNLPDQCTPNPCDRKGTQACQDLMGNFFCLCKAGWGGRLCDKDVNECSQENGGCLQICHNKPGSFHCSCHSGFELSSDGRTCQDIDECADSEACGEARCKNLPGSYSCLCDEGFAYSSQEKACRDVDECLQGRCEQVCVNSPGSYTCHCDGRGGLKLSQDMDTCEDILPCVPFSVAKSVKSLYLGRMFSGTPVIRLRFKRLQPTRLVAEFDFRTFDPEGILLFAGGHQDSTWIVLALRAGRLELQLRYNGVGRVTSSGPVINHGMWQTISVEELARNLVIKVNRDAVMKIAVAGDLFQPERGLYHLNLTVGGIPFHEKDLVQPINPRLDGCMRSWNWLNGEDTTIQETVKVNTRMQCFSVTERGSFYPGSGFAFYSLDYMRTPLDVGTESTWEVEVVAHIRPAADTGVLFALWAPDLRAVPLSVALVDYHSTKKLKKQLVVLAVEHTALALMEIKVCDGQEHVVTVSLRDGEATLEVDGTRGQSEVSAAQLQERLAVLERHLRSPVLTFAGGLPDVPVTSAPVTAFYRGCMTLEVNRRLLDLDEAAYKHSDITAHSCPPVEPAAA
notes: Bought reagent; also called hGas6; Growth Arrest-Specific 6

binding result [17]: binds
binding result [18]: binds
binding result [19]: binds
maximal binding in presence of Gas6 (% of binding in absence of Gas6) [20]: 43%
EC50 [21]: 0.15 µg/mL
B2: IgG1-AXL-061 (antibody, V domains shown)
VH: QVQLVQSGAEVKKPGASVKVSCKASGYAFTGYGISWVRQAPGQGLEWIGWISAYNGNTNYVQNLQDRVTMTTDTSTSTAYMELRSLRSDDTAVYYCARDHISMLRGIIIRNYWGQGTLVTVSS
VL: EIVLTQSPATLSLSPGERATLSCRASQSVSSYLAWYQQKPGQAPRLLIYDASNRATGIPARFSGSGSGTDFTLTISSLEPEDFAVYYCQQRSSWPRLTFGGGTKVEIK
